For assay [1], the target named is T1, human VEGFA (human, UniProt P15692-4 27-191, limits assumed, biotinylated (sites not given) in the ELISA assays).
T1 construct: also called biotinylated VEGFA protein; biotin-HVEGFA
In words: blocking ELISA: VEGFR2 coated, biotinylated VEGFA with antibody dilutions (FIG. 1). The method, then:
(§1) (4) After washing with PBST for 5 times, 100 uL SA-HRP (1:100000 dilution) was added and incubated at 37° C. for 1 hour. (5) After washing with PBST for 5 times, TMB chromochrome solution 100 uL was added, and developed at 37° C. for 10 min, 2M H₂SO₄ (50 uL/well) was added to terminate the reaction, and the absorption value was measured at 450 nm wavelength with a microplate reader.
For orientation: ELISA stands for enzyme-linked immunosorbent assay.

In assay [2] the target is T1, human VEGFA. Kind of assay: blocking ELISA: VEGFR2 coated, biotinylated VEGFA with antibody dilutions (FIG. 4). The method, then:
as §1

In assay [3] the target is T1, human VEGFA. Kind of assay: cell-based or functional assay.
In assay [4] the target is T1, human VEGFA. Kind of assay: blocking ELISA: VEGFR2 coated, biotinylated VEGFA with antibody dilutions (FIG. 5). The method, then: as §1
Assay [5] addresses T1, human VEGFA. In words: blocking ELISA: VEGFR1 coated, biotinylated VEGFA with antibody dilutions (FIG. 10). The method, then:
(1) VEGFR1 protein was coated on an enzyme plate (1 ug/mL, 100 uL/well) and incubated at 4° C. overnight. […] (4) After washing with PBST for 5 times, 100 uL SA-HRP (1:100000 dilution) was added and incubated at 37° C. for 1 hour. (5) After washing with PBST for 5 times, TMB solution (100 uL) was added and developed at 37° C. for 10 min, 2M H₂SO₄ (50 uL/well) was added to terminate the reaction, and the absorption value at 450 nm wavelength was measured with a microplate reader.

In assay [6] the target is T1, human VEGFA. Kind of assay: blocking ELISA: VEGFR2 coated, biotinylated VEGFA with antibody dilutions (FIG. 5); reference huNb24. Here is the method: as §1
The target of another assay is T2, human VEGFC (human, UniProt P49767 112-227, limits assumed, biotinylated (sites not given)).
T2 construct: also called Biotin-HVEGFC
T2 sequence (looked up): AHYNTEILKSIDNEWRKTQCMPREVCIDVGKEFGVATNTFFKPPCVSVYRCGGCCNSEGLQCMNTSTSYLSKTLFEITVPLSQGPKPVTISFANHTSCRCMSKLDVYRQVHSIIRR
Kind of assay: ELISA, antibody coated, biotinylated ligand, SA-HRP. The method, then: (§2) ELISA was used to verify whether the candidate antibodies could cross-react with VEGF homologous proteins. (1) 1 ug/mL antibody to be measured was added to the ELISA plate and coated overnight at 4° C. […] (4) After washing with PBST for 5 times, 100 uL diluted SA-HRP (1:5000 diluted) was added at 37° C. and incubated for 1 hour; (5) After washing with PBST for 5 times, TMB solution (100 uL) was added and developed at 37° C. for 10 min, add 2M H₂SO₄ (50 uL/well) was added to terminate the reaction, and the absorption value at 450 nm wavelength was measured with a microplate reader.

The target of the next assay is T3, human VEGFB (human, UniProt P49765-2 22-188, limits assumed, biotinylated (sites not given)).
T3 construct: also called Biotin-HVEGFB
T3 sequence (looked up): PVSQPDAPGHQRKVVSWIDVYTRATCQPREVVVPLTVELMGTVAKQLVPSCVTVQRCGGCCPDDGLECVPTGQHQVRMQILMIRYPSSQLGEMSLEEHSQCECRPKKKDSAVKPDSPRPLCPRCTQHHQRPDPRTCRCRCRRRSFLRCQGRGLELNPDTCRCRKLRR
Described as above. The method, then:
as §2

The next assay has as its target T4, human VEGFD (human, UniProt O43915 89-205, limits assumed, biotinylated (sites not given)).
T4 construct: also called Biotin-HVEGFD
T4 sequence (looked up): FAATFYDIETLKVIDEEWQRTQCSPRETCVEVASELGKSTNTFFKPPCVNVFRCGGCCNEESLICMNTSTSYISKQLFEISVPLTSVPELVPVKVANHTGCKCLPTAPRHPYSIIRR
The assay is described as above. Here is the method: as §2

The target in assay [7] is T1, human VEGFA. In words: blocking ELISA: VEGFR2 coated, biotinylated VEGFA with antibody dilutions (FIG. 6). Here is the method: as §1

Where a chain is given by its changes, count along the chain named. A value given as a limit tells only on which side of the number the result lay.

T1 sequence (P15692 other isoform, or with tags, fused parts or gaps limits assumed): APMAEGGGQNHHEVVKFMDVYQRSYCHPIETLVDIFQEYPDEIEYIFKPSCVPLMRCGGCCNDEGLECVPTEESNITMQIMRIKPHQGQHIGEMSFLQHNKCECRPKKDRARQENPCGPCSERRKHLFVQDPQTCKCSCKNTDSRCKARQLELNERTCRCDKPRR

B1: Nb24 (Fc fusion)
chain: QVQLQESGGGSVQAGGSLRLSCTASGFTFDDPDVGWFRQAPGNECELVSTISKDGSTYYTDSVKGRFTISQDYAKNTVYLQMNSLKPEDTAVYYCAADSNPIAPIRTCLGWYNYWGQGTQVTVSS
notes: also called candidate antibody Nb24; antibody before humanization; not shown: Fc
A word on the IC50: it is the point on the concentration scale where inhibition reaches its midpoint. The low end stands for higher potency, the high end for lower potency. As for B1, the IC50 in the assay with human VEGFA [1] is 0.0149 µg/mL; with human VEGFA [2] it was 0.045 µg/mL. Moreover, the “inhibitory effect on HUVEC cell proliferation (CCK8, OD450), IC50” value with human VEGFA [3] worked out at 0.0296 µg/mL.

B2: huNb24 (Fc fusion)
chain: B1 chain with Q1E, S11L, A14P, Q71R, K86R, P87A, Q120L
notes: also called humanized antibody huNb24; antibody after humanization; not shown: Fc from the pFUSE vector
For B2, the IC50 in the assay with human VEGFA [2] came to 0.038 µg/mL; with human VEGFA [4] it was 0.044 µg/mL.

B3: hu bi-Nb24(Y) (VHH)
chain: EVQLQESGGGLVQPGGSLRLSCTASGFTFDDPDVGWFRQAPGNECELVSTISKDGSTYYTDSVKGRFTISRDYAKNTVYLQMNSLRAEDTAVYYCAADSNPIAPIRTCLGWYNYWGQGTLVTVSSGGGGSGGGSEVQLQESGGGLVQPGGSLRLSCTASGFTFDDPDVGWFRQAPGNECELVSTISKDGSTYYTDSVKGRFTISRDYAKNTVYLQMNSLRAEDTAVYYCAADSNPIAPIRTCLGWYNYWGQGTLVTVSS
notes: Bivalent tandem VHH, one chain, expressed in Pichia pastoris, no Fc; also called humanized bivalent antibody expressed by the yeast; huNb24 bivalent
In the case of B3, the values for the IC50 in the assay with human VEGFA [5], with human VEGFA [7] and in the assay with human VEGFA [4] were 0.168 µg/mL, 0.022 µg/mL and 0.013 µg/mL, respectively. The “fold increase of blocking activity against huNb24” value with human VEGFA [6] was > 3 times. The binding result with human VEGFC, with human VEGFB and with human VEGFD was “no binding (tested: 1 ug/mL)” each time. In addition, the “inhibitory effect on HUVEC cell proliferation, IC50” value in the assay with human VEGFA [3] is 0.0536 µg/mL.

The values above are taken from patent publication US20220324954A1 (SHANGHAI NOVAMAB BIOPHARMACEUTICALS, published 2022).
